Tests used:
[1] = target: Poly [ADP-ribose] polymerase 2 (human) (UniProt Q9UGN5); experiment: co-IP from A549 WT lysate, LC-MS/MS, peak area against isotype IP
[2] = target: DNA topoisomerase 2-alpha (human) (UniProt P11388); experiment: as above
[3] = target: DNA-dependent protein kinase catalytic subunit (DNA-PK) (human) (UniProt P78527); experiment: as above
DNA ligase 3 (human) [4] = target: DNA ligase 3 (human) (UniProt P49916); experiment: as above
[5] = target: DNA topoisomerase 2-beta (human) (UniProt Q02880); experiment: as above
[6] = target: DNA mismatch repair protein Msh2 (human) (UniProt P43246); experiment: as above
[7] = target: Replication protein A 70 kDa DNA-binding subunit (human) (UniProt P27694); experiment: as above
[8] = target: Sister chromatid cohesion protein PDS5 homolog B (human) (UniProt Q9NTI5); experiment: as above
[9] = target: X-ray repair cross-complementing protein 6 (human) (UniProt P12956); experiment: as above
[10] = target: Poly [ADP-ribose] polymerase 1 (human) (UniProt P09874); experiment: as above
[11] = target: X-ray repair cross-complementing protein 5 (human) (UniProt P13010); experiment: as above
[12] = target: FACT complex subunit SPT16 (human) (UniProt Q9Y5B9); experiment: as above
Histone H3.1 (human) = Histone H3.1 (human) (UniProt P68431); experiment: as above
[13] = target: Core histone macro-H2A.1 (human) (UniProt O75367); experiment: as above
Histone H2A.Z (human) = Histone H2A.Z (human) (UniProt P0C0S5); experiment: as above
[14] = target: Werner syndrome ATP-dependent helicase (human) (UniProt Q14191); experiment: as above
[15] = target: DNA-directed RNA polymerase I subunit RPA1 (human) (UniProt O95602); experiment: as above
[16] = target: T1, native human NRP-1 on the cell surface (human, UniProt O14786 22-923); experiment: flow cytometry, MDA-MB-231 cells, 40 ug/ml, with against without chondroitinase
T1 construct: whole, on cells; endogenous protein; isoform and glycosaminoglycan state on the cells not defined; also called native NRP-1 on MDA-MB-231 cells; native form of NRP-1 protein on the CTCs cell surface
Experimental: (§1) Chondroitinase (C2905, Sigma) was reconstituted in a 0.01% BSA aqueous solution. The MDA-MB-231 cells were treated with chondroitinase (1 U/ml) for 2 hours at 37° C. The cells were detached using cell dissociation solution non-enzymatic (C5914, Sigma). 300,000 cells per condition were washed with 2% FBS in PBS and then incubated with different antibodies of interest or their respective isotype controls at 40 μg/ml for 30 min at 4° C. After wash, an Alexa 488-conjugated anti-human immunoglobulin antibody (20022-1, Biotium) was added at 10 μg/ml for 30 min at 4° C. After a final wash, fluorescence, size and granularity of cells were measured by the LSR Fortessa cytometer (BD Biosciences).

NRP-1 peptide (Npep) = target: T2, NRP-1 peptide (Npep); experiment: ELISA, antibody 10 µg/ml, 2 µg immobilised Npep
T2 construct: also called synthetic peptide Npep
T2 peptide: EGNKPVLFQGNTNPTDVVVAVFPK

[17] = target: T1, native human NRP-1 on the cell surface; experiment: flow cytometry, MDA-MB-231 cells, 40 ug/ml, -chondroitinase
Experimental: as §1

[18] = target: T1, native human NRP-1 on the cell surface; experiment: flow cytometry, MDA-MB-231 cells, 10 ug/ml, with against without heparinase
[19] = target: T1, native human NRP-1 on the cell surface; experiment: flow cytometry, MDA-MB-231 cells, 40 ug/ml, +chondroitinase
Experimental: as §1

[20] = target: DNA-dependent protein kinase catalytic subunit (DNA-PK) (human) (UniProt P78527); experiment: co-IP from CTC41.5E lysate, LC-MS/MS, peak area against isotype IP
DNA ligase 3 (human) [21] = target: DNA ligase 3 (human) (UniProt P49916); experiment: as above
[22] = target: DNA topoisomerase 2-beta (human) (UniProt Q02880); experiment: as above
[23] = target: X-ray repair cross-complementing protein 6 (human) (UniProt P12956); experiment: as above
[24] = target: UV excision repair protein RAD23 homolog B (human) (UniProt P54727); experiment: as above
[25] = target: T1, native human NRP-1 on the cell surface; experiment: flow cytometry, MDA-MB-231 cells, 10 ug/ml, -heparinase
[26] = target: T3, recombinant murine NRP-1 (5994-N1-050, Bio-Techne) (murine, UniProt P97333 22-856); experiment: ELISA, antibody 10 µg/ml, 1 µg immobilised murine NRP-1
T3 construct: extracellular domain; bought protein; also called mouse recombinant NRP-1

B1: variant 4 of a-NRP1_LEP n° 1 (antibody, V domains shown)
VH: EVQLVESGGGLVQPGGSLRLSCAASGFTFSSFGMHWVRQAPGKGLEWVAYISSGSSTIHYADSVKGRFTISRDNAKNSLYLQMNSLRAEDTAMYYCARRHYGSSRYWYFDVWGQGTTVTVSS
VL: EIVLTQSPATLSLSPGERATLSCRASQSVKSYLAWYQQKPGQAPRLLIYYASSRATGIPARFSGSGSGTDFTLTISSLEPEDFAVYYCQQYSESPYTFGQGTKLEIK
notes: humanized variant of 21B10; isotype control hIgG4; also called variant 4 a-NRP1_LEP; variant n°4 a-NRP1_LEP
Ratio Area V4/IgG4 [1]: 259
Ratio Area V4/IgG4 [2]: 1440
Ratio Area V4/IgG4 [3]: 6.06
Ratio Area V4/IgG4 (DNA ligase 3 (human) [4]): 78.8
Ratio Area V4/IgG4 [5]: 369
Ratio Area V4/IgG4 [6]: 1
Ratio Area V4/IgG4 [7]: 2
Ratio Area V4/IgG4 [8]: 358
Ratio Area V4/IgG4 [9]: 1.9
Ratio Area V4/IgG4 [10]: 546
Ratio Area V4/IgG4 [11]: 2.3
Ratio Area V4/IgG4 [12]: 6030
Ratio Area V4/IgG4 (Histone H3.1 (human)): 82.5
Ratio Area V4/IgG4 [13]: 1130
Ratio Area V4/IgG4 (Histone H2A.Z (human)): 22
Ratio Area V4/IgG4 [14]: 540
Ratio Area V4/IgG4 [15]: 3210
delta (% of control) [16]: -6.8%
Absorbance (NRP-1 peptide (Npep)): 0.855
percentage of binding [17]: 93.2%
delta (% of control) [18]: -2.3%
percentage of binding [19]: 86.4%
Ratio Area V4/IgG4 [20]: 10.5
Ratio Area V4/IgG4 (DNA ligase 3 (human) [21]): 7770
Ratio Area V4/IgG4 [22]: 50.1
Ratio Area V4/IgG4 [23]: 58.8
Ratio Area V4/IgG4 [24]: 307
percentage of binding [25]: 12.4%
Absorbance [26]: 0.986
